Data as given in US20220112240.

How the values were obtained:
[1] = test system: T1, D-2 FLAG (branched peptide; branching symbol printed as an image)
T1 sequence 1: FFKY
T1 sequence 2: DYKDDDDKG

[2] = test system: T2, L-2 FLAG (branched peptide; branching symbol printed as an image)
T2 sequence 1: XFKY
T2 sequence 2: DYKDDDDKG

enterokinase (ENTK), enzyme added in solution
circular dichroism after ENTK cleavage of the branch [1]: the cleavage of the branch results in largely β-sheet (D-1) and random-coil (FLAG-tag) like secondary structures ... as well as for those of D-2 FLAG and L-2 FLAGs | circular dichroism after ENTK cleavage of the branch [2]: the cleavage of the branch results in largely β-sheet (D-1) and random-coil (FLAG-tag) like secondary structures ... as well as for those of D-2 FLAG and L-2 FLAGs
